Measured values from patent US7067619 (LA JOLLA CANCER RESEARCH FOUNDATION, dated 2006).
Ends that are not written are not given here.

B1: CPSRGDALC phage (peptide)
peptide: CPSRGDALC
notes: on fuse 5 phage, fused to pIII
B2: CLSRGDVVC phage (peptide)
peptide: CLSRGDVVC
notes: as for B1
B3: CTRRGDATC phage (peptide)
peptide: CTRRGDATC
notes: as for B1
B4: CRGDHGTLC phage (peptide)
peptide: CRGDHGTLC
notes: as for B1
B5: CRGDTYLIC phage (peptide)
peptide: CRGDTYLIC
notes: as for B1
B6: CNARGDKLC phage (peptide)
peptide: CNARGDKLC
notes: as for B1
B7: CSRGDTYLC phage (peptide)
peptide: CSRGDTYLC
notes: as for B1
B8: CPRGDSTLC phage (peptide)
peptide: CPRGDSTLC
notes: as for B1
B9: CRGDSLRC phage (peptide)
peptide: CRGDSLRC
notes: as for B1
B10: CKTPGRLDC phage (peptide)
peptide: CKTPGRLDC
notes: as for B1
B11: CGRGDTPTC phage (peptide)
peptide: CGRGDTPTC
notes: as for B1
B12: CRGDSFVGC phage (peptide)
peptide: CRGDSFVGC
notes: as for B1
B13: CVVRGDTFC phage (peptide)
peptide: CVVRGDTFC
notes: as for B1
B14: CWSISPYFC phage (peptide)
peptide: CWSISPYFC
notes: as for B1
B15: CTTRGDSFC phage (peptide)
peptide: CTTRGDSFC
notes: as for B1
B16: CTTRSDSFC phage (peptide)
peptide: CTTRSDSFC
notes: as for B1
B17: CTRGDSIFC phage (peptide)
peptide: CTRGDSIFC
notes: as for B1
B18: CRGDAWPGC phage (peptide)
peptide: CRGDAWPGC
notes: as for B1
B19: CRGDVFLC phage (peptide)
peptide: CRGDVFLC
notes: as for B1
B20: CRGDGRNC phage (peptide)
peptide: CRGDGRNC
notes: as for B1
B21: CDRGDSQSC phage (peptide)
peptide: CDRGDSQSC
notes: as for B1
B22: CRVRGDSWC phage (peptide)
peptide: CRVRGDSWC
notes: as for B1
B23: CAGRGDALC phage (peptide)
peptide: CAGRGDALC
notes: as for B1
B24: CLVLPSTGC phage (peptide)
peptide: CLVLPSTGC
notes: as for B1
B25: CISRGDTFC phage (αvβ5 selection) (peptide)
peptide: CISRGDTFC
notes: as for B1
B26: CWTRGDSFC phage (peptide)
peptide: CWTRGDSFC
notes: as for B1
B27: CRGDKGWNC phage (peptide)
peptide: CRGDKGWNC
notes: as for B1
B28: CVTRGDNFC phage (peptide)
peptide: CVTRGDNFC
notes: as for B1
B29: CVLRGDNFC phage (peptide)
peptide: CVLRGDNFC
notes: as for B1
B30: CLRRGDSGC phage (peptide)
peptide: CLRRGDSGC
notes: as for B1
B31: CPDLLAQSC phage (peptide)
peptide: CPDLLAQSC
notes: as for B1
B32: CEVRGDRIC phage (peptide)
peptide: CEVRGDRIC
notes: as for B1
B33: CARRLDAPC phage (peptide)
peptide: CARRLDAPC
notes: as for B1
B34: CSRGDGRC phage (peptide)
peptide: CSRGDGRC
notes: as for B1
B35: CHTRGDTFC phage (peptide)
peptide: CHTRGDTFC
notes: as for B1
B36: CNIRGDKIC phage (peptide)
peptide: CNIRGDKIC
notes: as for B1
B37: CNRRGDNWGC phage (peptide)
peptide: CNRRGDNWGC
notes: as for B1
B38: CVRRGDVFC phage (peptide)
peptide: CVRRGDVFC
notes: as for B1
B39: CQARGDRPRC phage (peptide)
peptide: CQARGDRPRC
notes: as for B1
B40: CYARGDSFC phage (peptide)
peptide: CYARGDSFC
notes: as for B1
B41: CLCRGDCIC phage (peptide)
peptide: CLCRGDCIC
modifications: not fully specified (bridges); also: two disulfide bonds, pairing not given here
notes: as for B1
B42: CISRGDTFC phage (αvβ3 selection) (peptide)
peptide: CISRGDTFC
notes: as for B1
B43: CEGRGDSFC phage (peptide)
peptide: CEGRGDSFC
notes: as for B1
B44: CEPRGDSFC phage (peptide)
peptide: CEPRGDSFC
notes: as for B1
B45: CFRGDDRKC phage (peptide)
peptide: CFRGDDRKC
notes: as for B1
B46: CRGDLAWVC phage (peptide)
peptide: CRGDLAWVC
notes: as for B1
B47: CEMRGDTFC phage (peptide)
peptide: CEMRGDTFC
notes: as for B1
B48: CTRGDSLDC phage (peptide)
peptide: CTRGDSLDC
notes: as for B1
B49: CGRGDLIHC phage (peptide)
peptide: CGRGDLIHC
notes: as for B1
B50: CLVRGDSLC phage (peptide)
peptide: CLVRGDSLC
notes: as for B1
B51: CRGDCCQSC phage (peptide)
peptide: CRGDCCQSC
notes: as for B1
B52: CLRGDIANC phage (peptide)
peptide: CLRGDIANC
notes: as for B1
B53: CSPRGDAGC phage (peptide)
peptide: CSPRGDAGC
notes: as for B1
B54: CWRGDRAC phage (peptide)
peptide: CWRGDRAC
notes: as for B1
B55: CGRGDSHHC phage (peptide)
peptide: CGRGDSHHC
notes: as for B1
B56: CELRGDSAC phage (peptide)
peptide: CELRGDSAC
notes: as for B1
B57: CVRRGDAFC phage (peptide)
peptide: CVRRGDAFC
notes: as for B1
B58: CRGDGIRFC phage (peptide)
peptide: CRGDGIRFC
notes: as for B1
B59: CRGDNTFGC phage (peptide)
peptide: CRGDNTFGC
notes: as for B1
B60: CSRGDGAIC phage (peptide)
peptide: CSRGDGAIC
notes: as for B1
B61: CVTRGDHFC phage (peptide)
peptide: CVTRGDHFC
notes: as for B1
B62: CWRGDTPC phage (peptide)
peptide: CWRGDTPC
notes: as for B1
B63: CDCRGDCLC phage (peptide)
peptide: CDCRGDCLC
modifications: not fully specified (bridges); also: two disulfide bonds, pairing not given here
notes: as for B1
B64: CRGDTVYAC phage (peptide)
peptide: CRGDTVYAC
notes: as for B1
B65: CLRGDRVC phage (peptide)
peptide: CLRGDRVC
notes: as for B1
B66: CLHPNVRSC phage (peptide)
peptide: CLHPNVRSC
notes: as for B1
B67: CDLRGDTYC phage (peptide)
peptide: CDLRGDTYC
notes: as for B1
B68: CYSLGFLVC phage (peptide)
peptide: CYSLGFLVC
notes: as for B1
B69: CRGDSHLQC phage (peptide)
peptide: CRGDSHLQC
notes: as for B1
B70: CNARGDGFC phage (peptide)
peptide: CNARGDGFC
notes: as for B1

How the values were obtained:
[1] = molecular target: T1, αvβ3 integrin isolated from human placental extract (human, UniProt P06756 31-1048; P05106 27-788); assay: phage panning on coated integrin
T1 construct: isolated on GRGDSPK-Sepharose; said to be primarily αvβ3
T1 sequence (P06756 31-1048, chain 1 of 2): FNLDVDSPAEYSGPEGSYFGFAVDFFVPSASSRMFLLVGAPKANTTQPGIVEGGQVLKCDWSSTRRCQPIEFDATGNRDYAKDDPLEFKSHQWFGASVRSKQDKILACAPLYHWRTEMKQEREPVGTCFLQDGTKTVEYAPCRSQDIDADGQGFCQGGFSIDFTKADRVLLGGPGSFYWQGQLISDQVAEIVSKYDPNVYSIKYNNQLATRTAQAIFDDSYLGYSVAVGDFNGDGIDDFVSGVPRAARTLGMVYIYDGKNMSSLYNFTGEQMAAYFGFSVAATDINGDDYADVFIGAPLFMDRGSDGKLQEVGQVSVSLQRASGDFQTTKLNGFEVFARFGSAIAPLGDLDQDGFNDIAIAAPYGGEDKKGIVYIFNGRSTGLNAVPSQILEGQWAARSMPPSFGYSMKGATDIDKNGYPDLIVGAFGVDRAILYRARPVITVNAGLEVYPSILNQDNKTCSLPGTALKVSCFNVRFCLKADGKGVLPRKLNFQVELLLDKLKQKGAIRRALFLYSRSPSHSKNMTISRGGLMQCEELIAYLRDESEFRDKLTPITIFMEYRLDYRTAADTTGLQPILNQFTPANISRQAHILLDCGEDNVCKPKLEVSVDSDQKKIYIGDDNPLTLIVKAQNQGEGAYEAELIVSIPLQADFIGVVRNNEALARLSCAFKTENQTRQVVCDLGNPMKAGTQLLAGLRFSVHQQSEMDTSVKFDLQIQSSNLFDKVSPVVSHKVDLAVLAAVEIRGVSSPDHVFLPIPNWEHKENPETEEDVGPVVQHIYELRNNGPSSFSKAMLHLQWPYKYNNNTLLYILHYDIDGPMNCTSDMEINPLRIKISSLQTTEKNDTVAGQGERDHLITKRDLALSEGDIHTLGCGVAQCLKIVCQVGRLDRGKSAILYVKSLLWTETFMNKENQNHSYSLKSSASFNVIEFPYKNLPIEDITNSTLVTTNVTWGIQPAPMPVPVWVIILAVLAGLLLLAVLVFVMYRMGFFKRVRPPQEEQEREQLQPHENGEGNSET
T1 sequence (P05106 27-788, chain 2 of 2): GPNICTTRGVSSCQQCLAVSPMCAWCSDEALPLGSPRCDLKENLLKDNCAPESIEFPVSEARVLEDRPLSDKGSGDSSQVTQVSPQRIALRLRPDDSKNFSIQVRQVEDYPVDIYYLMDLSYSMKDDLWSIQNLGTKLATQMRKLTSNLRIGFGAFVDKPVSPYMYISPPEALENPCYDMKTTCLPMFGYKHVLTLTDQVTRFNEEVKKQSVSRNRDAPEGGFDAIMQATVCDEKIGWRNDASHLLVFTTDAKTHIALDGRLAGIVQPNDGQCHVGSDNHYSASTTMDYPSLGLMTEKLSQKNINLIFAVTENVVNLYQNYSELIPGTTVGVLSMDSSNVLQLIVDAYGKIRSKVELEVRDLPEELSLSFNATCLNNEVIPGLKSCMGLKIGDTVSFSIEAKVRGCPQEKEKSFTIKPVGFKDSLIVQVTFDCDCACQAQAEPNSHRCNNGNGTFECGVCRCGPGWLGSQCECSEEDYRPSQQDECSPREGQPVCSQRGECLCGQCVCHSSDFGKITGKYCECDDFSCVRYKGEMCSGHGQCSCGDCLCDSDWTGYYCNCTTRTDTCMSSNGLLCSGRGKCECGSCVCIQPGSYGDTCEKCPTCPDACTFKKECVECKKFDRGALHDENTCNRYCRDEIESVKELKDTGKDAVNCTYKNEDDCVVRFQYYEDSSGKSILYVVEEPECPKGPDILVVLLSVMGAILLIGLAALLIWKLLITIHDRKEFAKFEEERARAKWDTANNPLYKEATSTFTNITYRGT
Protocol: (§1) In the first panning, the integrins were coated at 5 µg per well, and the library pool was incubated for 4 hours at 25° C. in TBS buffer containing 1% bovine serum albumin and 1 mM MnCl_2 (α_5β_1, α_vβ_3) 1 mM MgCl_2 ($\alphaIIb\beta_3$) or 1 mM CaCl_2 (α_vβ_5).

[2] = molecular target: αvβ5 integrin isolated from human placental extract (human, UniProt P06756 31-1048; P18084 24-799); assay: phage panning on coated integrin
Sequence of αvβ5 integrin isolated from human placental extract (P06756 31-1048, chain 1 of 2): as the sequence (P06756 31-1048, chain 1 of 2) above
Sequence of αvβ5 integrin isolated from human placental extract (P18084 24-799, chain 2 of 2): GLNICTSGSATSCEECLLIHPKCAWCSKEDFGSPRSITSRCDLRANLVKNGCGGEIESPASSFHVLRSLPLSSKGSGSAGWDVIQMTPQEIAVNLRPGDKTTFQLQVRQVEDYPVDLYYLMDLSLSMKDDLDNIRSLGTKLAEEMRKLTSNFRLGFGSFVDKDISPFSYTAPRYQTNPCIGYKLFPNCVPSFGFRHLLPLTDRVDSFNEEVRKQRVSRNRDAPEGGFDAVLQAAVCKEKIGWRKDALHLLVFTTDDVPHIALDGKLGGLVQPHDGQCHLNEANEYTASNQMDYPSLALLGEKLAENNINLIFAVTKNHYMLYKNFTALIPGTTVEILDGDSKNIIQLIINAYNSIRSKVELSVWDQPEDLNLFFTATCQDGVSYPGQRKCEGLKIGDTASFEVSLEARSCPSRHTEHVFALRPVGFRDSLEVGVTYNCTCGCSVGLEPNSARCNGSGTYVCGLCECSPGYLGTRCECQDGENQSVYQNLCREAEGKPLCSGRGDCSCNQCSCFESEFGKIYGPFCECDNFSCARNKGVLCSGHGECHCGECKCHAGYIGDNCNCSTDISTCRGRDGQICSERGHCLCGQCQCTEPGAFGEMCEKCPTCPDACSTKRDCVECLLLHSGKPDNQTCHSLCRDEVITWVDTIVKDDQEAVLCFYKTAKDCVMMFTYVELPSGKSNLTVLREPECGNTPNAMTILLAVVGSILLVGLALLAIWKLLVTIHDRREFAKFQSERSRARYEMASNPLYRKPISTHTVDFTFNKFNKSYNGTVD
Protocol: as §1

| Binder | binding result [1] | binding result [2] |
| --- | --- | --- |
| B1 | binds | – |
| B2 | binds | – |
| B3 | binds | – |
| B4 | binds | – |
| B5 | – | binds |
| B6 | binds | – |
| B7 | binds | – |
| B8 | binds | – |
| B9 | binds | – |
| B10 | binds | – |
| B11 | – | binds |
| B12 | binds | – |
| B13 | – | binds |
| B14 | binds | – |
| B15 | binds | – |
| B16 | binds | – |
| B17 | binds | – |
| B18 | binds | – |
| B19 | – | binds |
| B20 | binds | – |
| B21 | binds | – |
| B22 | binds | – |
| B23 | binds | – |
| B24 | binds | – |

| Binder | binding result [1] | binding result [2] |
| --- | --- | --- |
| B25 | – | binds |
| B26 | – | binds |
| B27 | binds | – |
| B28 | – | binds |
| B29 | – | binds |
| B30 | binds | – |
| B31 | binds | – |
| B32 | binds | – |
| B33 | binds | – |
| B34 | binds | – |
| B35 | – | binds |
| B36 | binds | – |
| B37 | binds | – |
| B38 | – | binds |
| B39 | binds | – |
| B40 | – | binds |
| B41 | – | binds |
| B42 | binds | – |
| B43 | – | binds |
| B44 | – | binds |
| B45 | binds | – |
| B46 | binds | – |
| B47 | – | binds |
| B48 | binds | – |

| Binder | binding result [1] | binding result [2] |
| --- | --- | --- |
| B49 | binds | – |
| B50 | – | binds |
| B51 | – | binds |
| B52 | binds | – |
| B53 | binds | – |
| B54 | binds | – |
| B55 | binds | – |
| B56 | – | binds |
| B57 | binds | – |
| B58 | binds | – |
| B59 | binds | – |
| B60 | binds | – |
| B61 | binds | – |
| B62 | binds | – |
| B63 | – | binds |
| B64 | binds | – |
| B65 | binds | – |
| B66 | – | binds |
| B67 | – | binds |
| B68 | binds | – |
| B69 | binds | – |
| B70 | binds | – |
